Data taken from US20210032294A1, “MODIFIED PlySs2 LYSINS AND USES THEREOF” (CONTRAFECT CORPORATION, priority 2018, published 2021).
Several values for one entry are separate records, joined by “and”; a condition that tells them apart may be missing. Equal entries are not always repeated.

Columns and labels:
[1] = Toxicity screening in mice; type: in vivo; conditions: 30 mg/kg
Procedure: Selected modified lysin polypeptides from Table 3 were subjected to further testing as described in more detail in subsequent Examples. […] The same 30 mg/kg dose of PlySs2 caused a 100% incidence of adventitial findings, which is an indication of potential toxicity.

[2] = test system: S. aureus isolate CFS-860; experiment: Mouse neutropenic thigh infection (MNTI) model; type: in vivo, Staphylococcus aureus; conditions: neutropenic BALB/cByJ mice, intravenous, dose response, 24 hours
Procedure: The efficacy of four modified lysin polypeptides was compared to wild-type PlySs2 in a dose response (0-60 mg/kg) assay using a mouse neutropenic thigh infection (MNTI) model.
Bacterial inoculum was generated by allowing bacterial cells to grow to exponential phase in MHB until they reached an optical density (OD) of about 0.5 at 600 nm. The bacterial cells were thoroughly washed, resuspended in 0.9% sodium chloride USP, and diluted to an equivalent of 3.9×10^8 colony forming units (CFU)/mL. Cells were further diluted as described below in 0.9% sodium chloride USP and maintained on wet ice.
Neutropenia was induced in female BALB/cByJ mice (5-7 weeks, Jackson Laboratories) by intraperitoneal (ip) administration of 150 mg/kg and 100 mg/kg of cyclophosphamide 4 and 1 days prior to inoculation of bacteria, respectively. Bacterial inoculum (S. aureus isolate CFS-860, 100 μl of 10^7 CFU/ml solution) was injected intramuscularly (IM) into both posterior thighs of each mouse. […] At 2 hours post-inoculation (Early Control) and 24 hours post-treatment initiation, animals were euthanized (CO2 asphyxiation), and the thighs were aseptically removed. Each thigh was weighed, placed into 4 ml sterile saline and homogenized in 7 ml lysing tubes using a Precellys24 high-throughput tissue homogenizer (Bertin Corp, Rockville, Md.). Dilutions of homogenate were plated on tryptic soy blood agar plates (Becton Dickinson) and incubated at 37° C. overnight in a CO2 incubator. Bacterial burden was enumerated and expressed as log 10 CFU/g of thigh weight and compared to control animals harvested at 2 hours post infection (Early Control) and animals treated with vehicle (Late Control).
The data representing mouse thigh bacterial burden are depicted in FIG. 2. The upper dot on the y-axis is vehicle alone, and the lower dot on the y-axis is the Early Control. pp1149 is in fact also a wild-type lysin over-expressed and purified in the laboratory along with the other modified lysin polypeptides and used as an additional positive control.

bacterial inoculum = experiment: Thermal stability: in vitro lytic assay after 30 min heating; type: cell-based; conditions: for % Wild-Type Activity at 37° C. / % of CF-301 wild-type, 37° C.: 30 minutes at 37° C.; for % Wild-Type Activity at 37° C.: 128 μg/mL in Tris buffer pH 8.0, CF-301 set at 100; for % of CF-301 wild-type, 37° C.: another experiment; for % of CF-301 wild-type, 40° C.: 30 minutes at 40° C.; for % of CF-301 wild-type, 42° C.: 30 minutes at 42° C.; for % of CF-301 wild-type, 45° C.: 30 minutes at 45° C.; for % of CF-301 wild-type, 48° C.: 30 minutes at 48° C.; for % of CF-301 wild-type, 50° C.: 30 minutes at 50° C.
Procedure: Thermal stability was assessed by incubating the lysin polypeptides at a fixed concentration of 128 μg/mL in Tris buffer pH 8.0 for 30 minutes at various elevated temperatures (within the range of about 30° C. to 60° C.) prior to assessing activity. The samples were then cooled for 2 minutes on ice and activity was then assessed by an in vitro lytic assay by exposing a bacterial inoculum (OD600 ˜0.5-1.2) in Tris buffer to a 2-fold dilution series of each sample (diluted from 128-0.25 μg/mL across the x-axis of a 96 well microtiter plate). The loss of optical density was followed for 15 minute at room temperature, and the specific activity was determined based on the enzyme concentration enabling a 50% loss of optical density at 15 minutes. The enzyme activities of each variant were compared to the wild-type, CF-301 enzyme (GMT-grade PlySs2 protein) to calculate the % of Wild-Type Activity over a range of temperatures.
The thermal stability of wild-type, CF-301 was arbitrarily set at 100. The results for exemplary modified lysin polypeptides are set forth below in Table 5 at a single temperature of 37° C.:
In another experiment, the thermal stability of modified lysin polypeptides was assessed at different temperatures and compared with that of wild-type, CF-301 (set at 100).

| Molecule | Adventitial findings (lesions) [1] | Bactericidal efficacy (thigh bacterial burden) versus wild type [2] | % Wild-Type Activity at 37° C. (bacterial inoculum) | % of CF-301 wild-type, 37° C. (bacterial inoculum) [%] | % of CF-301 wild-type, 40° C. (bacterial inoculum) [%] | % of CF-301 wild-type, 42° C. (bacterial inoculum) [%] | % of CF-301 wild-type, 45° C. (bacterial inoculum) [%] | % of CF-301 wild-type, 48° C. (bacterial inoculum) [%] | % of CF-301 wild-type, 50° C. (bacterial inoculum) [%] |
| --- | --- | --- | --- | --- | --- | --- | --- | --- | --- |
| pp55: Modified PlySs2 lysin, SEQ ID NO: 3: L92W, V104S, V128T, Y137S; extra C-terminal lysine (+246K) (protein) MTTVNEALNNVRAQVGSGVSVGNGECYALASWYERMISPDATVGLGAGVGWVSGAIGDTISAKNIGSSYNWQANGWTVSTSGPFKAGQIVTWGATPGNPYGHVSIVEAVDGDRLTILEQNYGGKRYPTRNYYSAASSRQQVVHYITPPGTVAQSAPNLAGSRSYRETGTMTVTVDALNVRRAPNTSGEIVAVYKRGESFDYDTVIIDVNGYVWVSYIGGSGKRNYVATGATKDGKRFGNAWGTFK | did not result in adventitial lesions | activity comparable to wild-type PlySs2 lysin | 122% and 146% | 122.1 | 110.8 | 116.7 | 82.0 | 36.5 | 11.2 |
| pp65: Modified PlySs2 lysin, SEQ ID NO: 5: L92W, V104S, V128T, Y137S, S198Q, V204A, V212A; +246K (protein) MTTVNEALNNVRAQVGSGVSVGNGECYALASWYERMISPDATVGLGAGVGWVSGAIGDTISAKNIGSSYNWQANGWTVSTSGPFKAGQIVTWGATPGNPYGHVSIVEAVDGDRLTILEQNYGGKRYPTRNYYSAASSRQQVVHYITPPGTVAQSAPNLAGSRSYRETGTMTVTVDALNVRRAPNTSGEIVAVYKRGEQFDYDTAIIDVNGYAWVSYIGGSGKRNYVATGATKDGKRFGNAWGTFK | did not result in adventitial lesions | activity comparable to wild-type PlySs2 lysin | 220% | 219.9 | 248.4 | 270.4 | 82.1 | 0.0 | 0.0 |
| pp61: Modified PlySs2 lysin, SEQ ID NO: 4: L92W, V104S, V128T, Y137S, S198H, I206E; +246K (protein) MTTVNEALNNVRAQVGSGVSVGNGECYALASWYERMISPDATVGLGAGVGWVSGAIGDTISAKNIGSSYNWQANGWTVSTSGPFKAGQIVTWGATPGNPYGHVSIVEAVDGDRLTILEQNYGGKRYPTRNYYSAASSRQQVVHYITPPGTVAQSAPNLAGSRSYRETGTMTVTVDALNVRRAPNTSGEIVAVYKRGEHFDYDTVIEDVNGYVWVSYIGGSGKRNYVATGATKDGKRFGNAWGTFK | did not result in adventitial lesions | activity comparable to wild-type PlySs2 lysin | 258% | 258.3 | 149.1 | 189.4 | 80.0 | 0.0 | 0.0 |
